The source of these data is paper PMC8034652 (Nucleic Acids Research, 2021).

Series [1] deals with T1, FOXM1-DBD (UniProt Q08050 222-360).
T1 sequence: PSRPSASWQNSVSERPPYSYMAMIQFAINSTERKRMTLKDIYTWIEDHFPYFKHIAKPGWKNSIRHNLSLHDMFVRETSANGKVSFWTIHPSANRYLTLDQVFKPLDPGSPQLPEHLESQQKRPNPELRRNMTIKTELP
Description: EMSA. On the technique in general: A gel shift assay detects complexes by their altered migration in electrophoresis.

The target of series [2] is FOXO3-DBD (UniProt O43524 158-253). Description: EMSA.
Series [3] deals with T2, FOXI1-DBD (UniProt Q12951 119-223).
T2 sequence: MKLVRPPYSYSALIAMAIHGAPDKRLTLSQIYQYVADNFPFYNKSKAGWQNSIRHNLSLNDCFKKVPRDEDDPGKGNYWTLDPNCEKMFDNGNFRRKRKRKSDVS
Description: EMSA.

The target of series [4] is T3, FOXC2-DBD (UniProt Q99958 72-171).
T3 sequence: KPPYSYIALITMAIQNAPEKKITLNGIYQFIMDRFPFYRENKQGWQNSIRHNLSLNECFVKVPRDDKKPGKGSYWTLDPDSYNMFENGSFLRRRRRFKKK
Description: EMSA.

Series [5] addresses T4, FOXO1-DBD (human, UniProt Q12778 151-266). Description: ITC. On the technique in general: Isothermal titration calorimetry measures the heat released or taken up as one component is titrated into another.
Series [6] deals with the molecule itself. Description: […].
Series [7] has as its target T4, FOXO1-DBD. Description: crystal structure.
Series [8] deals with T3, FOXC2-DBD. Description: crystal structure.
Series [9] concerns the molecule itself. Description: crystal structure.
The target in series [10] is FOXO1-DBD R225E (human, UniProt Q12778 151-266, R225E). Description: EMSA.
The target of series [11] is FOXO1-DBD Q227R (human, UniProt Q12778 151-266, Q227R). Description: EMSA.

B1: DIV2_26 (dsDNA)
DNA 1: GACGAAGTAAACATGTTTACTTCGTC
DNA 2: GACGAAGTAAACATGTTTACTTCGTC
Regarding B1, the binding result in [1], in [2], in series [3] and in [4] was “binds” each time. Besides, the affinity in series [5], expressed as Kd, was 150 nM.

B2: FOXO3-DBD (residues 158-253) (domain or fragment)
chain: GNLSYADLITRAIESSPDKRLTLSQIYEWMVRCVPYFKDKGDSNSSAGWKNSIRHNLSLHSRFMRVQNEGTGKSSWWIINPDGGKSGKAPRRRAVS
As to B2, the binding result in [6] was “binds”.

B3: DIV2 20-bp crystal DNA (dsDNA)
DNA 1: ACCGTAAACATGTTTACGGT
DNA 2: ACCGTAAACATGTTTACGGT
For the molecule B3, the binding result in [7] and in [8] was “binds” throughout.

B4: FOXI1-DBD (residues 119-223) (domain or fragment)
chain: T2 sequence
For the molecule B4, the binding result in series [6] was “binds”.

B5: human FOXO1-DBD (residues 151-266) (domain or fragment)
chain: KSSSSRRNAWGNLSYADLITKAIESSAEKRLTLSQIYEWMVKSVPYFKDKGDSNSSAGWKNSIRHNLSLHSKFIRVQNEGTGKSSWWMLNPEGGKSGKSPRRRAASMDNNSKFAKS
Turning to B5, the stoichiometry N (as a rule, the number of molecules, sites or subunits per partner or assembly) in series [9] worked out at 2.

B6: FKH_26 (dsDNA)
DNA 1: GACGAAGTAAACACGGCAGGTTCGTC
DNA 2: GACGAACCTGGCGTGTTTACTTCGTC
Consider B6, for which binding in series [5] was characterised by a dissociation constant (Kd) of 1380 nM. Further, the binding result in series [10] and in series [11] was “binds” each time.
